Experimental data taken from PMC12280161, “Reconstitution of circadian clock in synthetic cells reveals principles of timekeeping” (Nature Communications, 2025).
Changes are numbered by the printed parent chain. Numbers in names are those of the source.

B1: KaiB-6IAF (seKaiB-1-102-K25C-FLAG labelled with 6-iodoacetamidofluorescein) (natural protein, Synechococcus elongatus, UniProt Q79PF5 1-102, looked up)
chain: MSPRKTYILKLYVAGNTPNSVRALCTLKNILEVEFQGVYALKVIDVLKNPQLAEEDKILATPTLAKVLPLPVRRIIGDLSDREKVLIGLDLLYGELQDSDDF
modifications: 6-(iodoacetamido)fluorescein (6IAF), thiol-reactive fluorophore, on KaiB-K25C
notes: KaiB of Synechococcus elongatus, residues 1-102, with K25C; In the model KaiB is assigned as tetramers; not measured here; also called fluorescent KaiB; fluorescently labeled KaiB
B2: KaiB (seKaiB-1-102-FLAG) (natural protein, Synechococcus elongatus, UniProt Q79PF5 1-102, looked up)
chain: B1 chain with C25K
notes: KaiB of Synechococcus elongatus, residues 1-102; Present as half of the 50:50 KaiB:KaiB-6IAF mixture; gives no signal of its own; also called unlabelled KaiB

Target: T1, KaiC (FLAG-seKaiC-1-519) (Synechococcus elongatus, UniProt Q79PF4 1-519, initially hyperphosphorylated due to its preparation and storage at low temperatures (residues not given))
T1 construct: KaiC of Synechococcus elongatus, residues 1-519; In the model KaiC is assigned as hexamers; not measured here
T1 sequence (looked up): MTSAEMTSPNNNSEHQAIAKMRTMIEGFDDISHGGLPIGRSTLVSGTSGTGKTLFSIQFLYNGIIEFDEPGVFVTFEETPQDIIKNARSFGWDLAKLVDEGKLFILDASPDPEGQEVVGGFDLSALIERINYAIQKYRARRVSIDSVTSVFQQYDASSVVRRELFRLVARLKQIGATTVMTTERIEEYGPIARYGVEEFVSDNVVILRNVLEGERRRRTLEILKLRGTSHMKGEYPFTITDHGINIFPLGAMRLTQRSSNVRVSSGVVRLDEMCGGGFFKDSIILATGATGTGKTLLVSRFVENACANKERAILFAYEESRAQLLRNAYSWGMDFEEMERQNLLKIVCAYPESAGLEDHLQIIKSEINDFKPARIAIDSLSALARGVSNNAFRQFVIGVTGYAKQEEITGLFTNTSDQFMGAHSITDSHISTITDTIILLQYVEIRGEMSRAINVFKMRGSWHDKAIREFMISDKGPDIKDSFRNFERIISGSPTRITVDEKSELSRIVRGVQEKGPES
Experiment: other fluorescence titration; fluorescence quenching of KaiB-6IAF: 25 µL of a 50:50 mixture of KaiB:KaiB-6IAF at 7 µM added to 25 µL of serially diluted KaiC in a black clear-bottom 96-well plate; mean intensity followed for 22 h; without KaiA
Conditions: both partners purified

Binder | binding result
B1 | binds
B2 | binds
